Source: US20240317834A1, “COMPOSITIONS AND METHODS FOR NEUROLOGICAL DISEASES” (CODA BIOTHERAPEUTICS, INC., priority 2020, published 2024)
Changes are numbered by the printed parent chain. In names and notes the source's numbering stands.

System: Lenti-X 293T cells
Experiment: YFP fluorescence quenching anion reporter plate reader assay of engineered receptors stimulated with acetylcholine or a non-native ligand
Format: cell-based
Settings: for percent quench of YFP fluorescence, 30 nM TC-6683: TC-6683 30 nM; for percent quench of YFP fluorescence, 300 nM TC-6683: TC-6683 300 nM; for percent quench of YFP fluorescence, 3 uM TC-6683: TC-6683 3 uM; for percent quench of YFP fluorescence, 30 uM TC-6683: TC-6683 30 uM; for percent quench of YFP fluorescence, 100 uM TC-6683: TC-6683 100 uM; for percent quench of YFP fluorescence, 10 uM ach: acetylcholine 10 uM; for percent quench of YFP fluorescence, 100 uM ach: acetylcholine 100 uM; for percent quench of YFP fluorescence, 1 mM ach: acetylcholine 1 mM; for percent quench of YFP fluorescence, 3 mM ach: acetylcholine 3 mM
Source text: To screen these mutant LGICs for those having novel response profiles to ligands, an anion reporter assay was developed to assess the function of the LGICs in a high throughput format. In this assay, cells expressing a YFP reporter whose fluorescence is quenched in the presence of anion are transfected with DNA encoding the channel of interest. Upon exposure to ligand, channels that are activated will flux anion, resulting in a dose-dependent quench of the YFP that can be detected on a plate reader. The greater the quench signal (i.e., the more positive the value), the higher the ligand activity on the receptor is.
Lenti-X 293T cells (LX293T, Clontech) were maintained in DMEM containing 10% FBS and 1% penicillin/streptomycin (Invitrogen). […] Two days before assay, cells were split at a density of 20,000 cells/well in a 96-well tissue culture plate coated with poly-d lysine (Thermo Scientific). The next day, the cells were transiently transfected with 0.1 μg of DNA per well using standard Fugene protocol (Promega). On the day of assay, cells were washed 2 times in 1× extracellular solution (1×ECS: 140 mM NaCl, 5 mM KCl, 1 mM MgCl2, 2 mM CaCl2), 10 mM HEPES, 10 mM glucose, pH 7.2, mOsms 300). After the last wash, 100 μL of 1×ECS was added to the wells and the plate was incubated at 37° C. for 30 min. While incubating the plate, the drugs were diluted to a 2× concentration in 1×ECS-NaI (same components as 1×ECS except the 140 mM NaCl was replaced by 140 mM NaI). The plates were then read on a Flexstation3 (Molecular Devices). Each well, 8 wells at a time, of the plate is read for 2 min using a Flexstation3 (Molecular Devices) as follows: 1) a baseline YFP fluorescence is read for 17 sec, 2) 100 μL of ligand is added, and 3) the changes in YFP fluorescence are then measured every 1.3 sec for 1 minute and 43 seconds. The percent quench is calculated from the average fluorescence of the last 10 seconds of the read divided by the baseline average of the first 15 seconds prior to the ligand addition.
FIGS. 1A-1J provide heat maps of the percent quench of YFP fluorescence following stimulation by various doses of either acetylcholine or the non-native ligand as indicated in the Figures. CODA71 (SEQ ID NO: 33) was used as a control, and CODA75 (SEQ ID NO: 29, a non-responding chimeric engineered receptor) was used as the negative control. Quenching of the fluorescence signal, as indicated by blue shaded cells, indicate the level of engineered receptor activation by the non-native ligand at that concentration.

B1: CODA326: engineered chimeric LGIC receptor, L131A in SEQ ID NO: 33 (protein)
chain: MRCSPGGVWLALAASLLHVSLQGEFQRKLYKELVKNYNPLERPVANDSQPLTVYFSLSLLQIMDVDEKNQVLTTNIWLQMSWTDHYLQWNVSEYPGVKTVRFPDGQIWKPDILLYNSADERFDATFHTNVAVNSSGHCQYLPPGIFKSSCPMDLKNFPMDVQTCKLKFGSWSYGGWSLDLQMQEADISGYIPNGEWDLVGIPGKRSERFYECCKEPYPDVTFTVTMRRRMGYYLIQMYIPSLLIVILSWISFWINMDAAPARVGLGITTVLTMTTQSSGSRASLPKVSYVKAIDIWMAVCLLFVFSALLEYAAVNFVSRQHKELLRFRRKRRHHKSPMLNLFQEDEAGEGRFNFSAYGMGPACLQAKDGISVKGANNSNTTNPPPAPSKSPEEMRKLFIQRAKKIDKISRIGFPMAFLIFNMFYWIIYKIVRREDVHNQ
modifications: synthetic sequence of chimeric LGIC
YFP fluorescence quenching using CNL001 (1 nM CNL001, first column): 76.424%
YFP fluorescence quenching using CNL001 (1 nM CNL001, second column): 80.567%
YFP fluorescence quenching using TC-5619/Bradanicline (3 nM brd): 72.24%
YFP fluorescence quenching using Varenicline (3 nM var, first column): −5.939
YFP fluorescence quenching using Varenicline (3 nM var, second column): −2.294
YFP fluorescence quenching using CNL001 (10 nM CNL001, first column): 80.284%
YFP fluorescence quenching using CNL001 (10 nM CNL001, second column): 81.232%
YFP fluorescence quenching using TC-5619/Bradanicline (30 nM brd): 77.4%
YFP fluorescence quenching using Facinicline (30 nM fac): 69.94
YFP fluorescence quenching using Varenicline (30 nM var, first column): 68.663
YFP fluorescence quenching using Varenicline (30 nM var, second column): 70.718
YFP fluorescence quenching using CNL001 (50 nM CNL001, first column): 81.575%
YFP fluorescence quenching using CNL001 (50 nM CNL001, second column): 82.544%
YFP fluorescence quenching using ABT-126 (50 nM abt): −21.91%
YFP fluorescence quenching using CNL001 (100 nM CNL001, first column): 81%
YFP fluorescence quenching using CNL001 (100 nM CNL001, second column): 81.718%
YFP fluorescence quenching using CNL002 (100 nM CNL002): 27.88%
YFP fluorescence quenching using ABT-126 (100 nM abt): −0.5%
YFP fluorescence quenching using AZD-0328 (100 nM azd0328): 80.39%
YFP fluorescence quenching using ABT-126 (300 nM abt): 34.86%
YFP fluorescence quenching using AZD-0328 (300 nM azd0328): 82.07%
YFP fluorescence quenching using TC-5619/Bradanicline (300 nM brd): 78.02%
YFP fluorescence quenching using Facinicline (300 nM fac): 80.07
YFP fluorescence quenching using Varenicline (300 nM var, first column): 79.88
YFP fluorescence quenching using Varenicline (300 nM var, second column): 79.742
YFP fluorescence quenching using Varenicline (500 nM var, first column): 79.311
YFP fluorescence quenching using Varenicline (500 nM var, second column): 80.029
YFP fluorescence quenching using CNL001 (1 uM CNL001, first column): 82.334%
YFP fluorescence quenching using CNL001 (1 uM CNL001, second column): 81.539%
YFP fluorescence quenching using CNL002 (1 uM CNL002): 73.79%
YFP fluorescence quenching using ABT-126 (1 uM abt): 56.66%
YFP fluorescence quenching using TC-6987 (1 uM tc6987): 73.37
YFP fluorescence quenching using Varenicline (1 uM var, first column): 80.952
YFP fluorescence quenching using Varenicline (1 uM var, second column): 79.329
YFP fluorescence quenching using TC-6987 (10 uM tc6987): 78.18
YFP fluorescence quenching using CNL002 (30 uM CNL002): 75.89%
YFP fluorescence quenching using AZD-0328 (30 uM azd0328): 82.23%
YFP fluorescence quenching using Facinicline (30 uM fac): 78.32
YFP fluorescence quenching using TC-6987 (500 uM tc6987): 75.42
percent quench of YFP fluorescence, 30 nM TC-6683: −16.28%
percent quench of YFP fluorescence, 300 nM TC-6683: −11.73%
percent quench of YFP fluorescence, 3 uM TC-6683: −2.38%
percent quench of YFP fluorescence, 30 uM TC-6683: −9.77%
percent quench of YFP fluorescence, 100 uM TC-6683: 0.97%
percent quench of YFP fluorescence, 10 uM ach: 7.43%
percent quench of YFP fluorescence, 100 uM ach: 73.57%
percent quench of YFP fluorescence, 1 mM ach: 71.8%
percent quench of YFP fluorescence, 3 mM ach: 74.49%

B2: CODA330: engineered chimeric LGIC receptor, L131F in SEQ ID NO: 33 (protein)
chain: B1 chain with A131F
modifications: synthetic sequence of chimeric LGIC
YFP fluorescence quenching using CNL001 (1 nM CNL001, first column): 76.289%
YFP fluorescence quenching using CNL001 (1 nM CNL001, second column): 78.896%
YFP fluorescence quenching using TC-5619/Bradanicline (1 nM brd): −12.4%
YFP fluorescence quenching using TC-5619/Bradanicline (3 nM brd): 25.12%
YFP fluorescence quenching using Varenicline (3 nM var, first column): −3.016
YFP fluorescence quenching using Varenicline (3 nM var, second column): −1.452
YFP fluorescence quenching using CNL001 (10 nM CNL001, first column): 79.339%
YFP fluorescence quenching using CNL001 (10 nM CNL001, second column): 80.245%
YFP fluorescence quenching using TC-5619/Bradanicline (10 nM brd): 72.19%
YFP fluorescence quenching using TC-5619/Bradanicline (30 nM brd): 76.35%
YFP fluorescence quenching using Facinicline (30 nM fac): 2.9
YFP fluorescence quenching using Varenicline (30 nM var, first column): −0.193
YFP fluorescence quenching using Varenicline (30 nM var, second column): −1.853
YFP fluorescence quenching using CNL001 (50 nM CNL001, first column): 80.831%
YFP fluorescence quenching using CNL001 (50 nM CNL001, second column): 80.605%
YFP fluorescence quenching using ABT-126 (50 nM abt): −16.22%
YFP fluorescence quenching using CNL001 (100 nM CNL001, first column): 81%
YFP fluorescence quenching using CNL001 (100 nM CNL001, second column): 80.663%
YFP fluorescence quenching using CNL002 (100 nM CNL002): −3.76%
YFP fluorescence quenching using ABT-126 (100 nM abt): −11.89%
YFP fluorescence quenching using AZD-0328 (100 nM azd0328): 27.56%
YFP fluorescence quenching using TC-5619/Bradanicline (100 nM brd): 78.94%
YFP fluorescence quenching using ABT-126 (300 nM abt): 39.23%
YFP fluorescence quenching using AZD-0328 (300 nM azd0328): 73.35%
YFP fluorescence quenching using TC-5619/Bradanicline (300 nM brd): 77.06%
YFP fluorescence quenching using Facinicline (300 nM fac): 74.96
YFP fluorescence quenching using Varenicline (300 nM var, first column): 6.915
YFP fluorescence quenching using Varenicline (300 nM var, second column): 6.513
YFP fluorescence quenching using Varenicline (500 nM var, first column): 27.593
YFP fluorescence quenching using Varenicline (500 nM var, second column): 29.863
YFP fluorescence quenching using CNL001 (1 uM CNL001, first column): 81.293%
YFP fluorescence quenching using CNL001 (1 uM CNL001, second column): 81.428%
YFP fluorescence quenching using CNL002 (1 uM CNL002): 68.51%
YFP fluorescence quenching using ABT-126 (1 uM abt): 66.5%
YFP fluorescence quenching using TC-5619/Bradanicline (1 uM brd): 78.61%
YFP fluorescence quenching using TC-6987 (1 uM tc6987): 53.37
YFP fluorescence quenching using Varenicline (1 uM var, first column): 67.499
YFP fluorescence quenching using Varenicline (1 uM var, second column): 65.57
YFP fluorescence quenching using Facinicline (10 uM fac): 81.97
YFP fluorescence quenching using TC-6987 (10 uM tc6987): 74.23
YFP fluorescence quenching using CNL002 (30 uM CNL002): 77.77%
YFP fluorescence quenching using AZD-0328 (30 uM azd0328): 77.14%
YFP fluorescence quenching using Facinicline (30 uM fac): 78.31
YFP fluorescence quenching using TC-6987 (500 uM tc6987): 72.25
percent quench of YFP fluorescence, 30 nM TC-6683: −22.26%
percent quench of YFP fluorescence, 300 nM TC-6683: −18.89%
percent quench of YFP fluorescence, 3 uM TC-6683: −9.45%
percent quench of YFP fluorescence, 30 uM TC-6683: −9.23%
percent quench of YFP fluorescence, 100 uM TC-6683: −10.75%
percent quench of YFP fluorescence, 10 uM ach: 11.07%
percent quench of YFP fluorescence, 100 uM ach: 43.34%
percent quench of YFP fluorescence, 1 mM ach: 77.52%
percent quench of YFP fluorescence, 3 mM ach: 74.89%
